Biological target: soluble extracellular domain of poliovirus receptor (sPVR)
Test: BLI

Row | Molecule | Kd
1 | mouse TIGIT protein (from UniProt P86176 29-148) (receptor) | 0.033 µM
2 | mouse CD226 protein (receptor) EETLWDTTVRLSETMTLECVYPLTHNLTQVEWTKNTGTKTVSIAVYNPNHNMHIESNYLHRVHFLNSTVGFRNMSLSFYNASEADIGIYSCLFHAFPNGPWEKKIKVVWSDSFEIAAPSDSYLSAEPGQDVTLTCQLPRTWPVQQVIWEKVQPHQVDILASCNLSQETRYTSKYLRQTRSNCSQGSMKSILIIPNAMAADSGLYRCRSEAITGKNKSFVIRLIITDGGTNKHFILP | 6.13 µM

From PMC7851489
